Patent publication US20220395553A1, “CXCR4 ANTAGONIST PEPTIDES” (COHBAR, INC., priority 2019, published 2022)
Square brackets hold non-standard residues; d marks the D form. Ends that are not written are not given here.

B1: SEQ ID NO: 57 (peptide)
peptide: LERYHHS[dA]RSSLRPYTK-NH2
modifications: N-terminus assumed
SMILES: CC(C)C[C@H](NC(=O)[C@H](CO)NC(=O)[C@H](CO)NC(=O)[C@H](CCCNC(=N)N)NC(=O)[C@@H](C)NC(=O)[C@H](CO)NC(=O)[C@H](Cc1c[nH]cn1)NC(=O)[C@H](Cc1c[nH]cn1)NC(=O)[C@H](Cc1ccc(O)cc1)NC(=O)[C@H](CCCNC(=N)N)NC(=O)[C@H](CCC(=O)O)NC(=O)[C@@H](N)CC(C)C)C(=O)N[C@@H](CCCNC(=N)N)C(=O)N1CCC[C@H]1C(=O)N[C@@H](Cc1ccc(O)cc1)C(=O)N[C@H](C(=O)N[C@@H](CCCCN)C(N)=O)[C@@H](C)O
B2: SEQ ID NO: 56 (peptide)
peptide: LERYHHSVRSSLRPYTK-NH2
B3: SEQ ID NO: 16 (peptide)
peptide: LRRYHHSVRSSLRPYTK-NH2
B4: SEQ ID NO: 40 (peptide)
peptide: LERYHHT[dA]RSSLRPYTK

target: SNAP tagged-CXC4 receptor labeled with terbium (Tag-lite CXCR4 cells, HEK293) (UniProt P61073); test: HTRF competition on Tag-lite CXCR4 HEK293 cells; competitor labelled CXCL12
Sequence (P61073 whole entry): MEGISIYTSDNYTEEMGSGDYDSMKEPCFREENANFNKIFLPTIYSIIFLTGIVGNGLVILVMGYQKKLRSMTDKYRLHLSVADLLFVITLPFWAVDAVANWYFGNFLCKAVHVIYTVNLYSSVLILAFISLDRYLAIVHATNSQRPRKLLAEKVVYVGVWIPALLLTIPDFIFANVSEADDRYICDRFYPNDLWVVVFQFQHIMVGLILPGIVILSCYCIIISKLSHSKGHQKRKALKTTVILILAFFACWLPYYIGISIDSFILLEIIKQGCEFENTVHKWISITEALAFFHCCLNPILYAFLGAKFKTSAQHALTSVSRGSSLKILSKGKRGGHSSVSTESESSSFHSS

| Binder | IC50 | Percent Inhibition of CXCR4/CXCL12 Binding (400 nM peptide) |
| --- | --- | --- |
| B1 | 7 nM | 77% |
| B2 | 5 nM | 79% |
| B3 | 573 nM | -2% |
| B4 | – | 76% |
